“And” between values parts separate entries of the source, which are not always exact repeats. Equal values may be shown once.
Key:
[1] = molecular target: nonmuscle myosin IIB (mouse (endogenous in NIH3T3)) (UniProt Q61879); assay: co-IP
[2] = molecular target: nonmuscle myosin IIB (rat (endogenous in PC12 and rat brain)) (UniProt Q9JLT0); assay: co-IP
[3] = molecular target: nonmuscle myosin IIA (mouse (endogenous in NIH3T3)) (UniProt Q8VDD5); assay: co-IP
the DH–PH domains = assay: pull-down
[4] = molecular target: Tiam1 DH–PH domain (aa 1048–1406), His-tagged (UniProt Q60610); assay: SPR
[5] = molecular target: Vav1 DH–PH domain (aa 195–508), His-tagged (UniProt P15498); assay: SPR
[6] = molecular target: βPIX DH–PH domain (aa 100–400), His-tagged (UniProt O55043); assay: SPR
βPIX DH–PH domain (aa 100–400), His-tagged, sequence (O55043 100-400): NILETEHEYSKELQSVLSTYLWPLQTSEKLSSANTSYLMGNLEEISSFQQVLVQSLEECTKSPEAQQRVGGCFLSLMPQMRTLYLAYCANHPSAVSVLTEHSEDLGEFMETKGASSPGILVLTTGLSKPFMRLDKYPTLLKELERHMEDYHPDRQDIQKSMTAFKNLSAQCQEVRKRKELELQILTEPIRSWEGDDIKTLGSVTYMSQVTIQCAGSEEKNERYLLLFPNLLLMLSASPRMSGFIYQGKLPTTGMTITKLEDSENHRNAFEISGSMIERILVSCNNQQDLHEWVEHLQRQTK

nonmuscle myosin IIB (rat (endogenous in PC12 and rat brain)), sequence (Q9JLT0 whole entry): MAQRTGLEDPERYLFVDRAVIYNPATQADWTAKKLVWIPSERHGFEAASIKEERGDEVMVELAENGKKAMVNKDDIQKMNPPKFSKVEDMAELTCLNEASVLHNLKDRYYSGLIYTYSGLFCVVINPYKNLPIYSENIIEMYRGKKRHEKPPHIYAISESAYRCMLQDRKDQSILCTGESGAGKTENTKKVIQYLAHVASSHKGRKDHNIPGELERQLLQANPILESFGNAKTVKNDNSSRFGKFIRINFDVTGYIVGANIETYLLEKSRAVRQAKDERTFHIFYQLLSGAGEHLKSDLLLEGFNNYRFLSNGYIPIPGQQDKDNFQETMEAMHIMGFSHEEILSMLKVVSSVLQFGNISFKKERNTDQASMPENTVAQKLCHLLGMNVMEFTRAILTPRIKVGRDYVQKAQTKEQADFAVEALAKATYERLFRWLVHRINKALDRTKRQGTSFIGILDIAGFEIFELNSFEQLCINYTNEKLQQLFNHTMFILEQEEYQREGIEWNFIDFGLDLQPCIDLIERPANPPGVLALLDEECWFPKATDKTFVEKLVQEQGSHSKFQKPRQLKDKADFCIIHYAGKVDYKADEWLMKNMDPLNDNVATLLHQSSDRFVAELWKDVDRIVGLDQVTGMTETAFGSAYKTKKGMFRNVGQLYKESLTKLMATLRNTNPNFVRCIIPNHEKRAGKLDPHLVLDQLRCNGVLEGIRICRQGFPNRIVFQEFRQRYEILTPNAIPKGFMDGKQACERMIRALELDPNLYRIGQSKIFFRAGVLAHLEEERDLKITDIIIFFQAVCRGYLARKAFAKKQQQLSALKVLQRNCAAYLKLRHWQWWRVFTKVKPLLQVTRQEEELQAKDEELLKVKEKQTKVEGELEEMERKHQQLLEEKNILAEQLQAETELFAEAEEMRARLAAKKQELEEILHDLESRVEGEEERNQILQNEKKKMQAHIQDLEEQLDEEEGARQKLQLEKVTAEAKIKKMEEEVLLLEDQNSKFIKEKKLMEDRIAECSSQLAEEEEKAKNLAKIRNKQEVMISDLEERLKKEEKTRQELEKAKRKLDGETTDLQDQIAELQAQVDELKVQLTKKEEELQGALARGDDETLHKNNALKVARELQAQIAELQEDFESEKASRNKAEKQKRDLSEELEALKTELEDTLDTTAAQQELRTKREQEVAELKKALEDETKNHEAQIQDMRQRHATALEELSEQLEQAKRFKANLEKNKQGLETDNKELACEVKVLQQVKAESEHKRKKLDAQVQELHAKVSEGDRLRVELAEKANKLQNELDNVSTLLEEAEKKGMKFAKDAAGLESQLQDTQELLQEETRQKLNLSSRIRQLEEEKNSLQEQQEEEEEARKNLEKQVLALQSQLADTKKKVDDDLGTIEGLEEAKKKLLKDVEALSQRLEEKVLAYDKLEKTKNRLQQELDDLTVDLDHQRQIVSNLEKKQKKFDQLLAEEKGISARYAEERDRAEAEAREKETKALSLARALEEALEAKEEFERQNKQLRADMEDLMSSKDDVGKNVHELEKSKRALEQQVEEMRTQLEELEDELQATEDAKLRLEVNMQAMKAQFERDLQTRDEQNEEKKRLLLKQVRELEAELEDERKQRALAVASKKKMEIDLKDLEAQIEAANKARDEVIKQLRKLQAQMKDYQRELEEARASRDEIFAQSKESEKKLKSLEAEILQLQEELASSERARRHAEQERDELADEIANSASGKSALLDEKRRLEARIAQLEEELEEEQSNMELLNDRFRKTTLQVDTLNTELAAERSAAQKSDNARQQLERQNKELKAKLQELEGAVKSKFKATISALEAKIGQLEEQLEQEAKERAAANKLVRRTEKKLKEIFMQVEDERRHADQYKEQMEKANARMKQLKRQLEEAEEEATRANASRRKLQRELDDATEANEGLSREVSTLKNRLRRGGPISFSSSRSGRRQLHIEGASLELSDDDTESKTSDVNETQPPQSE
nonmuscle myosin IIB (mouse (endogenous in NIH3T3)), sequence (Q61879 whole entry): as the sequence (Q9JLT0 whole entry) above, with K150M, K170E, T452A, N652T, G933E, M1304I, G1389S, E1969D counted along it
Tiam1 DH–PH domain (aa 1048–1406), His-tagged, sequence (Q60610 1048-1406): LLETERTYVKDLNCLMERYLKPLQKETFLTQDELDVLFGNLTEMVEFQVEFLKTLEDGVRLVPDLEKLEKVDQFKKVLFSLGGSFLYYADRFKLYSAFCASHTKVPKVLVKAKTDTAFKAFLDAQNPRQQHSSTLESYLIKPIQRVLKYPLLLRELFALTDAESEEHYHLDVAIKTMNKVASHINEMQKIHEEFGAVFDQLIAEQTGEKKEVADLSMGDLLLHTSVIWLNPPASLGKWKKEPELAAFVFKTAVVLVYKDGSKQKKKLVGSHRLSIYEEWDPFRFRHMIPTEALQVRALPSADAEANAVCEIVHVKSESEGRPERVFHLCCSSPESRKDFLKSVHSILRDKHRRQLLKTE
nonmuscle myosin IIA (mouse (endogenous in NIH3T3)), sequence (Q8VDD5 whole entry, the tested form may be a part): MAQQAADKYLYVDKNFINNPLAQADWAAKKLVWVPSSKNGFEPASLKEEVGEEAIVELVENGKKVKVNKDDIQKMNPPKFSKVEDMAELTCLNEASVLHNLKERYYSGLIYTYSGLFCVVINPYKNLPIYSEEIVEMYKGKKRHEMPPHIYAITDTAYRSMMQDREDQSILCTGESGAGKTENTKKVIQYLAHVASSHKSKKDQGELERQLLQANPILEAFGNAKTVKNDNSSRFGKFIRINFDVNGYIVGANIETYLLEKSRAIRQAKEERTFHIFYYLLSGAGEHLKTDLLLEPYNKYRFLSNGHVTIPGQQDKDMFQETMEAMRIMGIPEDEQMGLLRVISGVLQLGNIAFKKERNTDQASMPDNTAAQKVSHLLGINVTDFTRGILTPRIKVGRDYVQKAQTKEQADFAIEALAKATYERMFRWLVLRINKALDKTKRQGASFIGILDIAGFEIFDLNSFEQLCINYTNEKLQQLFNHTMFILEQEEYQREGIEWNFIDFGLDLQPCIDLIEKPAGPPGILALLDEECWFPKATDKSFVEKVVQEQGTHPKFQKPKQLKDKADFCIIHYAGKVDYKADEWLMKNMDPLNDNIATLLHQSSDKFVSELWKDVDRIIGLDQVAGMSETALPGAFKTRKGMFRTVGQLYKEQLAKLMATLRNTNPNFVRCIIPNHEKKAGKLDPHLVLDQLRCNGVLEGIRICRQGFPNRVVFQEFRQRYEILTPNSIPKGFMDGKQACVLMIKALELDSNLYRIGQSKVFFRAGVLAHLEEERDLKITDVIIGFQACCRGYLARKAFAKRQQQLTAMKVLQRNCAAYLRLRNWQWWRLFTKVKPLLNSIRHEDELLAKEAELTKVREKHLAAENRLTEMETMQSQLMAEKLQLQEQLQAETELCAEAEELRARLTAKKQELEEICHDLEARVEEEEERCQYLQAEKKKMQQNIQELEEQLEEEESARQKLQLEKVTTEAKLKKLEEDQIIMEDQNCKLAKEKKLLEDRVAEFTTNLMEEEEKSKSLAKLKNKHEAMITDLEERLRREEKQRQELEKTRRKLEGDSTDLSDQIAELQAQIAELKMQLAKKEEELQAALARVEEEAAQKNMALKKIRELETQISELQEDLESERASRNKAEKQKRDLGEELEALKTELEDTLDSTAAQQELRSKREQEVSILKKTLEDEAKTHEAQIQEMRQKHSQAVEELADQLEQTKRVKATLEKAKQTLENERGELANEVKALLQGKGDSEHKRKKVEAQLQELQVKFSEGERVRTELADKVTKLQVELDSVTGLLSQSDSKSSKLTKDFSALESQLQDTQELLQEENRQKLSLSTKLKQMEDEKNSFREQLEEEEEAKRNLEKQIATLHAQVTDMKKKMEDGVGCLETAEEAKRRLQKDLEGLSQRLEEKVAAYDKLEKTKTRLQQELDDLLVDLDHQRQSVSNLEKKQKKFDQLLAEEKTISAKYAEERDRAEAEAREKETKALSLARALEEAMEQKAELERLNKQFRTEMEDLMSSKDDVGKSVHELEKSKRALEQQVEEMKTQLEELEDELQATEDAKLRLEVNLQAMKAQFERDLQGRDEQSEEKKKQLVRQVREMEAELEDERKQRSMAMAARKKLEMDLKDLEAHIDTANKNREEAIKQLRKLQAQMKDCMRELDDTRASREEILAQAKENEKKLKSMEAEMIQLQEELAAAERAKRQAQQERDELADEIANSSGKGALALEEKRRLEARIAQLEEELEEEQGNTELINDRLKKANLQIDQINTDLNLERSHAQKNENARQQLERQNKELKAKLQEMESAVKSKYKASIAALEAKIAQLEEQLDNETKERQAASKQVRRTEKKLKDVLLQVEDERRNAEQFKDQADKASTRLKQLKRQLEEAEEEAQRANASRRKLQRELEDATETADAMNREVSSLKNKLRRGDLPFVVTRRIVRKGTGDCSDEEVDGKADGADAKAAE
Vav1 DH–PH domain (aa 195–508), His-tagged, sequence (P15498 195-508): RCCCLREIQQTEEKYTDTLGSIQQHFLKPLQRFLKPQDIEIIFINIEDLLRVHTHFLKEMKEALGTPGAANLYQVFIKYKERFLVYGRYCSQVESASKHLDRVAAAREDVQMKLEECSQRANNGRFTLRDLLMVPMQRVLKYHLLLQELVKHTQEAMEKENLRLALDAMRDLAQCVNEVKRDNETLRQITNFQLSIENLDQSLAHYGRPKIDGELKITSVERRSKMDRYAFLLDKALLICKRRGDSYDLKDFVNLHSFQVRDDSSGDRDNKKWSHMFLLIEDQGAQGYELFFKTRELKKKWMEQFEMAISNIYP

Dbl (natural protein)
percent of the GEF of the lysate found in the MIIB IP [1]: 1.3%

FGD1 (natural protein)
percent of the GEF of the lysate found in the MIIB IP [2]: 8.1%

LARG (natural protein)
percent of the GEF of the lysate found in the MIIB IP [2]: 1%

Tiam1 (natural protein)
percent of the GEF of the lysate found in the MIIB IP [2]: 1.6%

Trio, Q0KL02 1-3102 (natural protein)
percent of the GEF of the lysate found in the MIIA IP [3]: 10.7% | percent of the GEF of the lysate found in the MIIB IP [1]: 8.7%

kalirin, P97924 1-2959 (natural protein)
percent of the GEF of the lysate found in the MIIB IP [2]: 5.6%

skeletal muscle myosin II (from UniProt Q28641 1-1938; P02602 1-192; P02608 1-170) (complex)
fold of association with F-actin over without F-actin (the DH–PH domains): 2 fold and 4 fold | Kd [4]: 0.29 µM | Kd [5]: 0.39 µM | Kd [6]: 0.26 µM
